Where a SMILES comes first, the peptide text is derived from it. [ ]: non-standard residue; d: D form. The star is where a group is joined. X1 = O=C(CCCCCCCn1cnc2c(Br)c(Br)c(Br)c(Br)c21)*
Key:
Assay in all cases: Kinase panel residual activity
Type in all cases: biochemical
Conditions in all cases: compound at 1 micromolar
[1] = molecular target: SYK (Homo sapiens, UniProt P43405)
[2] = molecular target: MLK1 (Homo sapiens, UniProt P80192)
[3] = molecular target: ERK1 (Homo sapiens, UniProt P27361)
Sequence of ERK1 (P27361 whole entry, species assumed): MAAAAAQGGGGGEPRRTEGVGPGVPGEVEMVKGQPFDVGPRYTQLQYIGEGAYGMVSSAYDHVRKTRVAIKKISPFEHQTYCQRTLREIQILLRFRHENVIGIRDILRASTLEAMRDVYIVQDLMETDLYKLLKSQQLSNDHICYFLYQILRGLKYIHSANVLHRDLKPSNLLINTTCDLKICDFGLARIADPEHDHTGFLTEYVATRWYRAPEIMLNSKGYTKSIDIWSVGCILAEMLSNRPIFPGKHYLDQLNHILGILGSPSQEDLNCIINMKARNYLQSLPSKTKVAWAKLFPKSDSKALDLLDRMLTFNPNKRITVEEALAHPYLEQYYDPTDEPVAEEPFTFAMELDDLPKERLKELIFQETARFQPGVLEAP

[4] = molecular target: TTBK2 (Homo sapiens, UniProt Q6IQ55)
Sequence of TTBK2 (Q6IQ55 whole entry, species assumed): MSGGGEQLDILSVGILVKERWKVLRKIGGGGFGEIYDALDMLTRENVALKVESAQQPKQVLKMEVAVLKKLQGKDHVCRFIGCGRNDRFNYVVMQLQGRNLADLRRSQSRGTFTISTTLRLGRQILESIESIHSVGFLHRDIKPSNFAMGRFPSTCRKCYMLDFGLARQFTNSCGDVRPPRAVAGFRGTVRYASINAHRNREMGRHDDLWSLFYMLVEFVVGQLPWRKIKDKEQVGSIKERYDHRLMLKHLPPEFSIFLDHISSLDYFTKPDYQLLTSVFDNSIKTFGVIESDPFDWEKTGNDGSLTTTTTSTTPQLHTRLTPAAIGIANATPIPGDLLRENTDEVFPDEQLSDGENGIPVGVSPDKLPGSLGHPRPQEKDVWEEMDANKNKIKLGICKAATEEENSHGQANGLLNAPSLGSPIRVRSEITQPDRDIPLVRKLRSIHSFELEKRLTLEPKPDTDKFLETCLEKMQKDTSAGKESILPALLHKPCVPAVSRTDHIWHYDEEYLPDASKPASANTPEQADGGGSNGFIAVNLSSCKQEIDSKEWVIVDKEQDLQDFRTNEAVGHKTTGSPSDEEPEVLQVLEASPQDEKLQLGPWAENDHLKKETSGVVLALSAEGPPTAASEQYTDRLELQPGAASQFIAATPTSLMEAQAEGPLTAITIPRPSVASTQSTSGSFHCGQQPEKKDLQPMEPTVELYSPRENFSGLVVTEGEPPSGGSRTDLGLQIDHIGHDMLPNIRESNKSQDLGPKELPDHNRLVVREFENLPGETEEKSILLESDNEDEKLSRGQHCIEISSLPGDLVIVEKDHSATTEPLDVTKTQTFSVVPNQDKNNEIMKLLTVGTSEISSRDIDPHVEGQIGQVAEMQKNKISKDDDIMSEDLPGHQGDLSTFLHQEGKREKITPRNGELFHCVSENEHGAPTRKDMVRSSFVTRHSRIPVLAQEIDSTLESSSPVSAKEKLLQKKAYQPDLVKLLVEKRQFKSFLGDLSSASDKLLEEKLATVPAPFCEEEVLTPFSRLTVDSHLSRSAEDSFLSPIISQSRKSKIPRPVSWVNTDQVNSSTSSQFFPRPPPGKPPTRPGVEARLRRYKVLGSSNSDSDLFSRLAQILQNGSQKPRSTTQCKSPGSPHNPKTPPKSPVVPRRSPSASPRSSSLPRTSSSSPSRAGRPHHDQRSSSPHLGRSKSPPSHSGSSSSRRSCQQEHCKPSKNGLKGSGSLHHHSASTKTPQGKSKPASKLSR

[5] = molecular target: TESK1 (Homo sapiens, UniProt Q15569)
Sequence of TESK1 (Q15569 whole entry, species assumed): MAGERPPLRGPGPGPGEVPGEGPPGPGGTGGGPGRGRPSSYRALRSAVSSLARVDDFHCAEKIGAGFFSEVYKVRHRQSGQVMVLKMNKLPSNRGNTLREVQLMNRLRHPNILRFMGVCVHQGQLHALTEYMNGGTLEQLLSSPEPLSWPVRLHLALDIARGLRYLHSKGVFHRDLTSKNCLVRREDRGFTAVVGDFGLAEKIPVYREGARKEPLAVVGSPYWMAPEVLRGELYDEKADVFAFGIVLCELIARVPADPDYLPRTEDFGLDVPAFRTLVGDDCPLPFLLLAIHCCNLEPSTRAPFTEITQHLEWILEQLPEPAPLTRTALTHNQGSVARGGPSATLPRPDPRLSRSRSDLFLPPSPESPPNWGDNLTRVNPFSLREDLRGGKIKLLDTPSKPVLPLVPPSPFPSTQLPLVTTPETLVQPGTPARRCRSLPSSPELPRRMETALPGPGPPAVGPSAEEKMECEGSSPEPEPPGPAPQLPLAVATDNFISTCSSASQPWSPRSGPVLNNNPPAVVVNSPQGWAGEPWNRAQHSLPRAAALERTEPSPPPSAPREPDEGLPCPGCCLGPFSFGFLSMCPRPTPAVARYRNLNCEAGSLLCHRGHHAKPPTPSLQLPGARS

Sequence of MLK1 (P80192 whole entry, species assumed): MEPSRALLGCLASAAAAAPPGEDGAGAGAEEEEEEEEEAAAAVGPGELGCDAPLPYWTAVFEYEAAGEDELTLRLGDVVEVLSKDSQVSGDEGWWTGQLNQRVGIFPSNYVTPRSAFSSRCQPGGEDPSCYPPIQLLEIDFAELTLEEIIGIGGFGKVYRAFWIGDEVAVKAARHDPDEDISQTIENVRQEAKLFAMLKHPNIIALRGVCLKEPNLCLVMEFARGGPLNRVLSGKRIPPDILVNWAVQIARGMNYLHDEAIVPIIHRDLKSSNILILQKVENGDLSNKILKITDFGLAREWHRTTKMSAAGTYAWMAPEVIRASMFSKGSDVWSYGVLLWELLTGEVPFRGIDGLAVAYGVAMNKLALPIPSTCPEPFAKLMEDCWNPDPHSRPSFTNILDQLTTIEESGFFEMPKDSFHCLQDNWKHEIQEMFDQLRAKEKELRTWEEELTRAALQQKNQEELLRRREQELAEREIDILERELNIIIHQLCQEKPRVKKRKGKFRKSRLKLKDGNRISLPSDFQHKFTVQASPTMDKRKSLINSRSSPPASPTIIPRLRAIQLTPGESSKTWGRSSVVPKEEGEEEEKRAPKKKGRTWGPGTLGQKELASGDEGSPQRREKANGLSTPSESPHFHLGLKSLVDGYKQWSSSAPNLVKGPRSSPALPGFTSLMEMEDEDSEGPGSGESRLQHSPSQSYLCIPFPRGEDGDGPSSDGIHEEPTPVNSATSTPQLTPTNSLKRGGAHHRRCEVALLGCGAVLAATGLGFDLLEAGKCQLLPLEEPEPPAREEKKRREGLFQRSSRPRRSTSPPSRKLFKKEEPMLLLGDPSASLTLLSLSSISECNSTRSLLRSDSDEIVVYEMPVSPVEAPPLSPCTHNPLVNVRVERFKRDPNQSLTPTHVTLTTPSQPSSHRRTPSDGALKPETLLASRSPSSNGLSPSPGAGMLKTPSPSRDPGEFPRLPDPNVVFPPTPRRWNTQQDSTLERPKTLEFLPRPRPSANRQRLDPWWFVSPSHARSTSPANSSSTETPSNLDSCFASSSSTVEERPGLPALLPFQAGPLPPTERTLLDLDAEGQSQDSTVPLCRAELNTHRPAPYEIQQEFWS

Structure (SMILES): NCCCC[C@H](NC(=O)[C@H](CC(=O)O)NC(=O)[C@H](CC(=O)O)NC(=O)[C@H](CC(=O)O)NC(=O)[C@H](CC(=O)O)NC(=O)[C@H](CC(=O)O)NC(=O)[C@@H](CC(=O)O)NC(=O)CCCCCCCn1cnc2c(Br)c(Br)c(Br)c(Br)c21)C(=O)O [TBBI-OcA-(D-Asp)-(L-Asp)5-(L-Lys)-OH] (X1-[dD]DDDDDK-OH)
- remaining activity at 1 µM [1]: 100%
- remaining activity at 1 µM [2]: 112%
- remaining activity at 1 µM [3]: 110%
- remaining activity at 1 µM [4]: 95%
- remaining activity at 1 µM [5]: 81%
